Values after ≈ are worked out from the molar mass of the structure shown. Values joined by “and” are separate entries in the source; they are usually repeats but may differ in a detail not shown here. Equal entries are not always repeated.
Legend:
Type in all cases: cell-based
Staphylococcus aureus = assay: Minimum inhibitory concentration on Staphylococcus aureus (liquid culture); settings: for Minimum inhibitory concentration on Staphylococcus aureus: 37° C., 24 to 48 hours
Method: (§1) Primary screening of liquid culture: the peptides in Examples 1 to 2 were dissolved in pure water to a concentration of 100 μg/mL. Using a micropipette, 10 μL of the peptides were added to a new 96-well plate in order from left to right, starting from the second compartment. Positive and negative controls were established for use. The 96-well plates were arranged vertically, and the peptide concentrations in the control groups were the same as those of the antimicrobial peptides. The control groups included: pure water and bacteria, antimicrobial peptide FK13 and bacteria, antimicrobial peptide HPA3NT3 and bacteria, and ciprofloxacin and bacteria. An aseptic medium was used.
(§2) If a 96-deep-well plate was used to culture bacteria, an additional 100 μL of sterile medium was added to all wells.
(§3) Staphylococcus aureus was inoculated in LB medium with a normal oxygen concentration (21%) for 48 hours. Staphylococcus aureus clones were picked and incubated in LB medium at 37° C. with a normal oxygen concentration (21%) for an additional 48 hours. The bacterial concentration was measured and diluted to 107 CFU/mL with culture medium for use.
(§4) The prepared fresh bacterial suspension was diluted to 105 CFU/mL and added to the 96-well plate with 90 μL of the bacterial suspension per well. The plate was incubated at 37° C. with a normal oxygen concentration for 24 to 48 hours (Propionibacterium acnes was cultured anaerobically at 37° C. for 24 to 48 hours in an anaerobic bag). The absorbance at 630 nm was measured using a microplate reader, and the degree of turbidity was observed by the naked eye.
(§5) (iv) Repetition of Operations: The Operations in (iii) were Repeated Twice, and the Decision to Perform a Third Repetition was Based on the Reproducibility of the Experiment.

Propionibacterium acnes = assay: Minimum inhibitory concentration on Propionibacterium acnes (liquid culture); settings: for Minimum inhibitory concentration on Propionibacterium acnes: anaerobic, 37° C., 24 to 48 hours
Method: as §1, §2
Propionibacterium acnes was inoculated on an anaerobic blood agar plate, placed in an anaerobic bag, and incubated anaerobically at 37° C. for 48 hours. Propionibacterium acnes clones were then picked and incubated anaerobically in liquid anaerobic broth medium at 37° C. for an additional 48 hours. The bacterial concentration was measured and diluted to 107 CFU/mL with culture medium.
as §4, §5

Escherichia coli = assay: Minimum inhibitory concentration on Escherichia coli (liquid culture); settings: for Minimum inhibitory concentration on Escherichia coli: 37° C., 24 to 48 hours
Method: as §1, §2
as §3, with “E. coli” for “Staphylococcus aureus”, “with” for “with a”
as §4, §5

[1] = system: HaCat (human immortalized epidermal cells) cells; assay: Cytotoxic assay (CCK-8) in HaCat cells; settings: 60 hours
Method: Preparation of Cell Suspension: HaCat (human immortalized epidermal cells) cells were counted and inoculated into 96-well plates. 100 μL of cell suspension was added to each well, corresponding to a density of 5×10^4 cells per well, with three replicates for each sample. The cells were cultured in a 37° C. incubator for 4 hours until they were attached to the plate. Peptides from the examples, as well as FK13 and HPA3NT3, were then added at concentrations of 80 μg/mL, 32 μg/mL, and 8 μg/mL. The cells were incubated at 37° C. for 60 hours. Afterward, 10 μL of CCK-8 solution was added, and the cells were cultured for an additional 2 hours. The absorbance of the peptides at 450 nm was measured using a dual-wavelength detector, with a detection wavelength of 450-490 nm and a reference wavelength of 600-650 nm.

[2] = system: rabbit blood erythrocytes; assay: Measurement of hemolytic concentration; settings: for Hemolysis rate: 37° C., 1 hour, replicate wells; for Minimum hemolytic concentration: rabbit erythrocytes
Method: 4 mL of 2% rabbit blood erythrocytes were washed twice with 4 mL PBS and centrifuged at 3000 rpm for 5 minutes. The supernatant was discarded, and the rabbit blood erythrocytes were resuspended in 4 mL PBS. 160 μg of the peptides from Examples 1 to 2, FK13, and HPA3NT3 were independently dissolved in 1 mL PBS buffer to prepare the peptide mother solutions with a concentration of 160 μg/mL. Subsequently, the peptide mother solutions were diluted with PBS buffer to concentrations of 80 μg/mL, 64 μg/mL, 32 μg/mL, 16 μg/mL, and 8 μg/mL. 100 μL of the 2% rabbit blood erythrocytes and 100 μL of different concentrations of peptides (80 μg/mL, 64 μg/mL, 32 μg/mL, 16 μg/mL, 8 μg/mL) were added to each well of a 96-well plate. In the negative control, 100 μL of PBS buffer was added, while in the positive control, 100 μL of 0.1% (w/v) Triton X-100 was added. Three replicate wells were set up for each group and incubated at 37° C. for 1 hour. The 96-well plate was then removed, centrifuged at 3000 rpm for 5 minutes, and 100 μL of supernatant was aspirated and transferred to a new 96-well plate. The absorbance was measured at 540 nm using an enzyme meter. Hemolysis rate (%)=((Absorbancesample−Absorbancenegative)/(Absorbancepositive−Absorbancenegative))*100%.

Candida albicans = assay: Minimum inhibitory concentration on Candida albicans (liquid culture); settings: 37° C., 24 to 48 hours
Method: Primary screening of liquid culture: the peptides in Examples 1 to 2 were dissolved in pure water to a concentration of 100 μg/mL. Using a micropipette, 10 μL of the peptides were added to a new 96-well plate in order from left to right, starting from the second compartment. Positive and negative controls were established for use. The 96-well plates were arranged vertically, and the peptide concentrations of the control groups were the same as those of the antimicrobial peptide. The control groups consisted of: pure water and bacteria, antimicrobial peptide FK13 and bacteria, and antimicrobial peptide HPA3NT3 and bacteria. An aseptic medium was used. The amino acid sequence of FK13 is […] (SEQ ID NO: 5), and the amino acid sequence of HPA3NT3 is […] (SEQ ID NO: 6).
as §2
as §3, with “Candida albicans was” for “Staphylococcus aureus was”, “with” for “with a”, “hours. […]” for “hours. Staphylococcus aureus”, “for” for “for an additional”
The prepared fresh bacterial suspension was diluted to 105 CFU/mL and added to the 96-well plate with 90 μL of the bacterial suspension per well, and incubated at 37° C. with normal oxygen concentration for 24 to 48 hours. The absorbance at 630 nm was measured with a microplate reader, and the degree of turbidity was observed by the naked eye.
as §5

[3] = system: Mouse macrophage RAW264.7 cells; assay: IL-6 and IL-1β protein concentration in LPS-stimulated RAW264.7 cells (ELISA); settings: Dexamethasone positive control; LPS 10 ng/ml, 24 hours; repeated experiments
Method: (§6) (1) Mouse macrophage RAW264.7 cells were cultured in DMEM supplemented with 10% fetal bovine serum (FBS) and 1% penicillin and streptomycin (P/S) at 37° C. in a 5% CO2 incubator.
(§7) (2) 5×10^4 mouse-derived RAW264.7 macrophages were placed in 12-well cell culture plates and cultured for 24 hours. Then, 20 μL of PBS (negative control), Dexamethasone (positive control), and the test peptide were added to the wells for incubation for 2 hours. Afterward, 10 ng/ml of lipopolysaccharide (LPS) was mixed with RAW264.7 cells and incubated for 24 hours.
(§8) (3) The supernatant was collected, and NO and IL-6/IL-1ß expression levels were measured using a commercial kit.
2. After treating RAW264.7 cells with peptide AMP-33, an ELISA kit was used to detect the concentration of IL-6 and IL-1β proteins.

[4] = system: Mouse macrophage RAW264.7 cells; assay: NO concentration after treatment of LPS-stimulated RAW264.7 cells; settings: Dexamethasone positive control; LPS 10 ng/ml, 24 hours; replicate experiments
Method: as §6, §7, §8

Compound | MIC (Staphylococcus aureus; Staphylococcus aureus, read-out: Minimum inhibitory concentration on Staphylococcus aureus) [µg/mL] | MIC (Propionibacterium acnes; Cutibacterium acnes, read-out: Minimum inhibitory concentration on Propionibacterium acnes) [µg/mL] | MIC (Escherichia coli; Escherichia coli, read-out: Minimum inhibitory concentration on Escherichia coli) [µg/mL] | Maximum cytotoxicity-free concentration [1] [µg/mL] | Minimum inhibitory concentration on Staphylococcus aureus (Staphylococcus aureus) [µg/mL] | Hemolysis rate ([2]; 8 μg/mL) | Hemolysis rate ([2]; 16 μg/mL) | Hemolysis rate ([2]; 32 μg/mL) | Hemolysis rate ([2]; 64 μg/mL) | Hemolysis rate ([2]; 80 μg/mL) | Minimum hemolytic concentration [2] [µg/mL] | Minimum inhibitory concentration on Candida albicans (Candida albicans) [µg/mL] | Minimum inhibitory concentration on Propionibacterium acnes (Propionibacterium acnes) [µg/mL] | Minimum inhibitory concentration on Escherichia coli (Escherichia coli) [µg/mL] | IL-1β protein concentration [3] | IL-6 protein concentration [3] | NO concentration [4]
O=C(O)c1cn(C2CC2)c2cc(N3CCNCC3)c(F)cc2c1=O [ciprofloxacin] | 0.25 (≈ 0.754 µM) | 0.25 (≈ 0.754 µM) | 0.25 (≈ 0.754 µM) |  |  |  |  |  |  |  |  |  |  |  |  |  | 
Example 1: GIFKKITGKLFKWIK (designated as AMP5) |  |  |  | 80 | 50 | 14.6% and −0.9% and 2.8% | 5.9% and 1.8% and 80.0% | 62% and 2.8% and −1.9% | 3.7% and −1.0% and 3.8% | 14.6% and −0.9% and 2.8% | 3.7 | 25 | 8 | 50 |  |  | 
C[C@@H]1C[C@H]2[C@@H]3CCC4=CC(=O)C=C[C@]4(C)[C@@]3(F)[C@@H](O)C[C@]2(C)[C@@]1(O)C(=O)CO [Dexamethasone, reference compound] |  |  |  |  |  |  |  |  |  |  |  |  |  |  | 75.1 pg/mL and 44 pg/mL | 14.2 pg/mL and 23.9 pg/mL | 6.80 µM and 6.06 µM and 3.43 µM
HPA3NT3: antimicrobial peptide HPA3NT3, FKRLKKLFKKKKIWNWK [reference compound] |  |  |  | 32 | 4 | 2.4% and 6.2% and 4.7% | 23% and −0.2% and 0.4% | 2.7% and 1.4% and 7.8% | 21.4% and −0.8% and 0.6% | 9.7% and 8.5% and 13.7% | 64.0 | 50 | 2 | 25 |  |  | 
FK13: antimicrobial peptide FK13, FPLTWLKWWKWKKK [reference compound] |  |  |  | 80 | 4 | 3.9% and 7.2% and 5.9% | 3.4% and 2.5% and 0.4% | 2.5% and 3.1% and 5.0% | 5.3% and 2.5% and 2.7% | 27.0% and 21.5% and 27.4% | 64.0 | 25 | 4 | 50 |  |  | 

From patent US20250263441A1 (Metanovas Biotech Inc., priority 2024, published 2025)
